Measured values: paper PMC6469808

How the values were obtained:
[1] = molecular target: Zika virus NS5, full length, wild type (Suriname ZIKV human isolate Z1106033), C-terminal 6xHis tag (Zika virus (Suriname human isolate Z1106033)); experiment: SEC-MALS; Superdex 200 10/300 GL; 50 mM MES pH 6.0, 500 mM NaCl, 10% glycerol, 5 mM DTT; monomer-dimer
[2] = molecular target: Zika virus NS5, full length, wild type (Suriname ZIKV human isolate Z1106033), C-terminal 6xHis tag (Zika virus (Suriname human isolate Z1106033)); experiment: SAXS; 6 mg/ml NS5 (highest concentration); 50 mM MES pH 6.0, 500 mM NaCl, 10% glycerol, 5 mM DTT; 10 °C
[3] = molecular target: Zika virus NS5, full length, wild type (Suriname ZIKV human isolate Z1106033), C-terminal 6xHis tag (Zika virus (Suriname human isolate Z1106033)); experiment: SEC-MALS; Superdex 200 10/300 GL; 50 mM HEPES pH 7.0, 500 mM NaCl, 10% glycerol, 5 mM DTT; monomer-dimer
[4] = molecular target: Zika virus NS5, full length, wild type (Suriname ZIKV human isolate Z1106033), C-terminal 6xHis tag (Zika virus (Suriname human isolate Z1106033)); experiment: AUC; sedimentation velocity, 20 °C, 43,000 rpm, 0.5 mg/ml protein; 50 mM HEPES pH 7.0, 500 mM NaCl, 5% glycerol, 0.4 mM DTT
[5] = molecular target: Zika virus NS5 Y25A/K28S/K29A variant, full length, C-terminal 6xHis tag (Zika virus (Suriname human isolate Z1106033))

| Substance | percent of the sample mass in the dimer peak [1] | stoichiometry N [1] | stoichiometry N [2] | percent abundance of the dimer peak [3] | stoichiometry N [3] | percent abundance of the dimer species [4] | percent of the sample as oligomer [4] | stoichiometry N [4] | RNA primer extension (polymerase elongation) activity at 900, 180, 18, 9 nM enzyme, variant against wild type NS5 [5] |
| --- | --- | --- | --- | --- | --- | --- | --- | --- | --- |
| Zika virus NS5, full length, wild type (Suriname ZIKV human isolate Z1106033), C-terminal 6xHis tag (from UniProt A0A024B7W1 2521-3423) (natural protein) | 4% | 2 | 2 | 10.4% | 2 | 12% | 5.1% | 2 | – |
| Zika virus NS5 Y25A/K28S/K29A variant, full length, C-terminal 6xHis tag (natural protein) | – | – | – | – | – | – | – | – | 3 fold |
